Key:
[1] = substrate: N[C@H](Cc1c[nH]c2ccccc12)C(=O)O; test: (§1) Activity of human full length CA6 at 10 uM by stopped flow CO2 hydration assay
[2] = substrate: N[C@@H](Cc1c[nH]c2ccccc12)C(=O)O; test: as §1

B1: Carbonic anhydrase 6 (Homo sapiens), P23280 (protein)
chain: MRALVLLLSLFLLGGQAQHVSDWTYSEGALDEAHWPQHYPACGGQRQSPINLQRTKVRYNPSLKGLNMTGYETQAGEFPMVNNGHTVQISLPSTMRMTVADGTVYIAQQMHFHWGGASSEISGSEHTVDGIRHVIEIHIVHYNSKYKSYDIAQDAPDGLAVLAAFVEVKNYPENTYYSNFISHLANIKYPGQRTTLTGLDVQDMLPRNLQHYYTYHGSLTTPPCTENVHWFVLADFVKLSRTQVWKLENSLLDHRNKTIHNDYRRTQPLNHRVVESNFPNQEYTLGSEFQFYLHKIEEILDYLRRALN
kcat [1]: 4.8 ×10⁵ /s
kcat [2]: 9.5 ×10⁵ /s
